According to US20250066451A1:

How the values were obtained:
[1] = biological target: IL-1R-I on cells (TF-1 cells, NHDF cells, human whole blood) (human) (UniProt P14778); assay: cell-based or functional assay
[2] = biological target: human IL-1R-I on Normal Human Dermal Fibroblasts (NHDF) cells (human) (UniProt P14778); assay: cell-based or functional assay
Chain of human IL-1R-I on Normal Human Dermal Fibroblasts (NHDF) cells (human) (P14778 18-569): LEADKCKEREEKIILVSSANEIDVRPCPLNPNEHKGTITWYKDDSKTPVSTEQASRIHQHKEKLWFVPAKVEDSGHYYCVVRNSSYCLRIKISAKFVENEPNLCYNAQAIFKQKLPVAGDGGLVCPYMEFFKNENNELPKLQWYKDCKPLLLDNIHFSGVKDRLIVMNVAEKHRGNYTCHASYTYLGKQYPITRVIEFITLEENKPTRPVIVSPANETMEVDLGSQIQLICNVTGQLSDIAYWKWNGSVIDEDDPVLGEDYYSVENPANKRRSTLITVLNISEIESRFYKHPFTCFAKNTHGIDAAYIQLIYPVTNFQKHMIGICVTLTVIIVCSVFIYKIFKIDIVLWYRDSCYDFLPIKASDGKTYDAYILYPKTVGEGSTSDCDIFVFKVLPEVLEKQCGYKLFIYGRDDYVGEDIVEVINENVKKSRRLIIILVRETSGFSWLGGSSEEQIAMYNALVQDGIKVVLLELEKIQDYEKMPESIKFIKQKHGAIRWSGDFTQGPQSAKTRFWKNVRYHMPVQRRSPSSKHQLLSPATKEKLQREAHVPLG

Chain of IL-1R-I on cells (TF-1 cells, NHDF cells, human whole blood) (human) (P14778 18-569): as above

IC50, inhibition of IL-1B induced proliferation of TF-1 cells [1]	median IC50, IL-1B induced IL-6 release in human whole blood [1]	median IC50, IL-1B induced IL-6 release in human whole blood (legend of FIG. 3) [1]	IC50 (pM), inhibition of IL-1B induced IL-6 release in NHDF cells [2]	Substance
0.05 nM	0.31 nM	0.3 nM		anakinra (Kineret, Sobi) (from UniProt P18510 26-177) (ligand)
			70 pM	anakinra (from UniProt P18510 26-177) (ligand)
